B1: rapalog 11 (R3 D-Thr, R4 Lys) (peptide)
chain: cyclo(K[dT][dA][Dkb][Pip][d(β3hF)]Q)
modifications: also: ester bond between residues 3 and 4
B2: rapalog 11 (R3 Nle, R4 Lys) (peptide)
chain: cyclo(K[Nle][dA][Dkb][Pip][d(β3hF)]Q)
modifications: also: ester bond between residues 3 and 4
B3: rapalog 12 (R3 D-Val, R4 D-Val) (peptide)
chain: cyclo(A[dV][dV][dA][Dkb][Pip][d(β3hF)]Q)
modifications: also: 5 Dkb: ester to 4
B4: rapalog 12 (R3 Pro, R4 Asp) (peptide)
chain: cyclo(ADP[dA][Dkb][Pip][d(β3hF)]Q)
modifications: also: 5 Dkb: ester to 4
B5: rapalog 12 (R3 Ala, R4 Lys) (peptide)
chain: cyclo(AKA[dA][Dkb][Pip][d(β3hF)]Q)
modifications: also: 5 Dkb: ester to 4
B6: rapalog 11 (R3 Pro, R4 Nle) (peptide)
chain: cyclo([Nle]P[dA][Dkb][Pip][d(β3hF)]Q)
modifications: also: 4 Dkb: ester to 3
B7: rapalog 11 (R3 D-Val, R4 D-Phe) (peptide)
chain: cyclo([dF][dV][dA][Dkb][Pip][d(β3hF)]Q)
modifications: also: ester bond between residues 3 and 4
B8: rapalog 11 (R3 Pro, R4 Ala) (peptide)
chain: cyclo(AP[dA][Dkb][Pip][d(β3hF)]Q)
modifications: also: ester bond between residues 3 and 4
B9: rapalog 11 (R3 D-Phe, R4 Lys) (peptide)
chain: cyclo(K[dF][dA][Dkb][Pip][d(β3hF)]Q)
modifications: also: ester bond between residues 3 and 4
B10: rapalog 11 (R3 Lys, R4 Gly) (peptide)
chain: cyclo(GK[dA][Dkb][Pip][d(β3hF)]Q)
modifications: also: ester bond between residues 3 and 4
B11: rapalog 11 (R3 Pro, R4 D-Val) (peptide)
chain: cyclo([dV]P[dA][Dkb][Pip][d(β3hF)]Q)
modifications: also: 4 Dkb: ester to 3
B12: rapalog 12 (R3 Pro, R4 D-Val) (peptide)
chain: cyclo(A[dV]P[dA][Dkb][Pip][d(β3hF)]Q)
modifications: also: 5 Dkb: ester to 4
B13: rapalog 12 (R3 Pro, R4 Ala) (peptide)
chain: cyclo(AAP[dA][Dkb][Pip][d(β3hF)]Q)
modifications: also: 5 Dkb: ester to 4
B14: rapalog 11 (R3 Lys, R4 Ala) (peptide)
chain: cyclo(AK[dA][Dkb][Pip][d(β3hF)]Q)
modifications: also: ester bond between residues 3 and 4
B15: rapalog 12 (R3 D-Val, R4 Pro) (peptide)
chain: cyclo(AP[dV][dA][Dkb][Pip][d(β3hF)]Q)
modifications: also: 5 Dkb: ester to 4
B16: rapalog 12 (R3 D-Thr, R4 Pro) (peptide)
chain: cyclo(AP[dT][dA][Dkb][Pip][d(β3hF)]Q)
modifications: also: 5 Dkb: ester to 4
B17: rapalog 11 (R3 D-Thr, R4 Nle) (peptide)
chain: cyclo([Nle][dT][dA][Dkb][Pip][d(β3hF)]Q)
modifications: also: ester bond between residues 3 and 4
B18: rapalog 12 (R3 D-Val, R4 D-Phe) (peptide)
chain: cyclo(A[dF][dV][dA][Dkb][Pip][d(β3hF)]Q)
modifications: also: 5 Dkb: ester to 4
B19: rapalog 12 (R3 Lys, R4 Nle) (peptide)
chain: cyclo(A[Nle]K[dA][Dkb][Pip][d(β3hF)]Q)
modifications: also: 5 Dkb: ester to 4
B20: rapalog 11 (R3 Lys, R4 Trp) (peptide)
chain: cyclo(WK[dA][Dkb][Pip][d(β3hF)]Q)
modifications: also: ester bond between residues 3 and 4
B21: rapalog 11 (R3 Pro, R4 D-Phe) (peptide)
chain: cyclo([dF]P[dA][Dkb][Pip][d(β3hF)]Q)
modifications: also: 4 Dkb: ester to 3
B22: rapalog 11 (R3 D-Val, R4 D-Val) (peptide)
chain: cyclo([dV][dV][dA][Dkb][Pip][d(β3hF)]Q)
modifications: also: ester bond between residues 3 and 4
B23: rapalog 11 (R3 Pro, R4 Asp) (peptide)
chain: cyclo(DP[dA][Dkb][Pip][d(β3hF)]Q)
modifications: also: ester bond between residues 3 and 4
B24: rapalog 12 (R3 Lys, R4 D-Thr) (peptide)
chain: cyclo(A[dT]K[dA][Dkb][Pip][d(β3hF)]Q)
modifications: also: 5 Dkb: ester to 4
B25: rapalog 11 (R3 Ala, R4 Pro) (peptide)
chain: cyclo(PA[dA][Dkb][Pip][d(β3hF)]Q)
modifications: also: ester bond between residues 3 and 4
B26: rapalog 11 (R3 Pro, R4 D-Thr) (peptide)
chain: cyclo([dT]P[dA][Dkb][Pip][d(β3hF)]Q)
modifications: also: 4 Dkb: ester to 3
B27: rapalog 11 (R3 Pro, R4 Lys) (peptide)
chain: cyclo(KP[dA][Dkb][Pip][d(β3hF)]Q)
modifications: also: 4 Dkb: ester to 3
B28: rapalog 11 (R3 Pro, R4 Trp) (peptide)
chain: cyclo(WP[dA][Dkb][Pip][d(β3hF)]Q)
modifications: also: 4 Dkb: ester to 3
B29: rapalog 12 (R3 Nle, R4 D-Thr) (peptide)
chain: cyclo(A[dT][Nle][dA][Dkb][Pip][d(β3hF)]Q)
modifications: also: 5 Dkb: ester to 4
B30: rapalog 12 (R3 D-Phe, R4 Lys) (peptide)
chain: cyclo(AK[dF][dA][Dkb][Pip][d(β3hF)]Q)
modifications: also: 5 Dkb: ester to 4
B31: rapalog 12 (R3 Pro, R4 D-Thr) (peptide)
chain: cyclo(A[dT]P[dA][Dkb][Pip][d(β3hF)]Q)
modifications: also: 5 Dkb: ester to 4
B32: rapalog 12 (R3 D-Phe, R4 Pro) (peptide)
chain: cyclo(AP[dF][dA][Dkb][Pip][d(β3hF)]Q)
modifications: also: 5 Dkb: ester to 4
B33: rapalog 12 (R3 Pro, R4 D-Phe) (peptide)
chain: cyclo(A[dF]P[dA][Dkb][Pip][d(β3hF)]Q)
modifications: also: 5 Dkb: ester to 4
B34: rapalog 11 (R3 Lys, R4 D-Val) (peptide)
chain: cyclo([dV]K[dA][Dkb][Pip][d(β3hF)]Q)
modifications: also: ester bond between residues 3 and 4
B35: rapalog 11 (R3 Pro, R4 Pro) (peptide)
chain: cyclo(PP[dA][Dkb][Pip][d(β3hF)]Q)
modifications: also: 4 Dkb: ester to 3
B36: rapalog 12 (R3 Lys, R4 Ala) (peptide)
chain: cyclo(AAK[dA][Dkb][Pip][d(β3hF)]Q)
modifications: also: 5 Dkb: ester to 4
B37: rapalog 12 (R3 Pro, R4 Lys) (peptide)
chain: cyclo(AKP[dA][Dkb][Pip][d(β3hF)]Q)
modifications: also: 5 Dkb: ester to 4
B38: rapalog 11 (R3 Lys, R4 D-Thr) (peptide)
chain: cyclo([dT]K[dA][Dkb][Pip][d(β3hF)]Q)
modifications: also: ester bond between residues 3 and 4
B39: rapalog 12 (R3 Pro, R4 Gly) (peptide)
chain: cyclo(AGP[dA][Dkb][Pip][d(β3hF)]Q)
modifications: also: 5 Dkb: ester to 4
B40: rapalog 11 (R3 Lys, R4 Pro) (peptide)
chain: cyclo(PK[dA][Dkb][Pip][d(β3hF)]Q)
modifications: also: ester bond between residues 3 and 4
B41: rapalog 11 (R3 Lys, R4 Lys) (peptide)
chain: cyclo(KK[dA][Dkb][Pip][d(β3hF)]Q)
modifications: also: ester bond between residues 3 and 4
B42: rapalog 2k (peptide)
chain: cyclo(AAF[Dkb][Pip][d(β3hF)]Q)
modifications: also: Dkb 4 joined by ester to 3

We go through 42 molecules from publication PMC3171579 (ACS combinatorial science, 2011).

Non-standard residues stand in square brackets, D forms with d. *: point of attachment. Dkb = 3,3-dimethyl-2-ketobutyryl, CC(C)(C)C(=O)C(=O)*; d(β3hF) = N[C@@H](CC(=O)O)Cc1ccccc1; Pip = O=C(O)[C@@H]1CCCCN1; Nle = CCCC[C@H](N)C(=O)O A value given as a limit tells only on which side of the number the result lay.

T1 sequence (P62942 whole entry): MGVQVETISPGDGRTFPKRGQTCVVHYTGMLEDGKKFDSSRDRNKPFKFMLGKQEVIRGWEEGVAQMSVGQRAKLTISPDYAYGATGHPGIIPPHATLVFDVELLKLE

The first assay has as its target T1, FK506-binding protein 12 (human, UniProt P62942 1-108). As to the kind of experiment: fluorescence polarisation.
Usually IC50 stands for the concentration needed to halve the response being measured. A lower IC50 goes with greater potency. Molecule B1 showed a half-inhibitory concentration (IC50) greater than 100 µM.

In turn, B2 showed an IC50 greater than 100 µM.

For B3, the IC50 is greater than 100 µM.

B4 had a concentration for half-maximal inhibition (IC50) of 3 µM.

As to B5, the IC50 is greater than 100 µM.

On to B6, for which the concentration for half-maximal inhibition (IC50) was found to be 71 µM. That is a double-digit micromolar value.

B7: the IC50 is greater than 100 µM.

Take B8: the IC50 turned out to be 33 µM. This counts as double-digit micromolar.

B9 yielded a 50% inhibitory concentration (IC50) greater than 100 µM.

For the molecule B10, the 50% inhibitory concentration (IC50) was 93 µM.

B11 returned a half-maximal inhibitory concentration (IC50) of 64 µM. The IC50 values of the last two molecules are within 1.5-fold of each other.

B12 registered an IC50 of 43 µM.

As for B13, the half-maximal inhibitory concentration (IC50) turned out to be 21 µM.

B14 gave an IC50 greater than 100 µM.

The molecule B15 had an IC50 greater than 100 µM.

In the case of B16, the half-inhibitory concentration (IC50) is greater than 100 µM.

Molecule B17 yielded a half-inhibitory concentration (IC50) greater than 100 µM.

Molecule B18 gave a half-maximal inhibitory concentration (IC50) greater than 100 µM.

B19 displayed an IC50 greater than 100 µM.

With B20, the IC50 came out at 12 µM.

The molecule B21 returned an IC50 of 46 µM.

With B22, the concentration for half-maximal inhibition (IC50) is greater than 100 µM.

In the case of B23, the IC50 amounted to 21 µM.

In turn, B24 had an IC50 greater than 100 µM.

The molecule B25 registered an IC50 greater than 100 µM.

The molecule B26 displayed a concentration for half-maximal inhibition (IC50) of 41 µM.

In turn, B27 showed an IC50 of 36 µM.

Molecule B28 had a 50% inhibitory concentration (IC50) of 21 µM.

The molecule B29 had an IC50 greater than 100 µM.

On to B30, for which the half-maximal inhibitory concentration (IC50) was greater than 100 µM.

The molecule B31 gave an IC50 of 38 µM.

Take B32: the half-maximal inhibitory concentration (IC50) was greater than 100 µM.

In the case of B33, the half-maximal inhibitory concentration (IC50) is 87 µM.

The molecule B34 registered an IC50 of 80 µM.

Turning to B35, the IC50 stood at 27 µM.

The molecule B36 returned a half-maximal inhibitory concentration (IC50) greater than 100 µM.

As to B37, the concentration for half-maximal inhibition (IC50) amounted to 29 µM.

In turn, B38 yielded an IC50 of 62 µM.

Take B39: the concentration for half-maximal inhibition (IC50) is 6 µM.

The molecule B40 gave an IC50 of 58 µM.

As to B41, the IC50 was greater than 100 µM.

The next assay addresses T1, FK506-binding protein 12. As to the kind of experiment: fluorescence polarisation. The source holds these as a separate data set. (Polarisation of emitted light reports the rotation of a fluorescent probe.)
With B42, the concentration for half-maximal inhibition (IC50) worked out at 18 µM. That is a double-digit micromolar value.
